Reference: patent publication US20220396633A1 (MABPRO A S, published 2022)

What follows are binders tested against CA IX-positive antigen (protein extract of C-33a_CA IX cells) (human, UniProt Q16790 38-459) (assay: ELISA, antibody 5 ug/ml on coated protein extract of C-33a_CA IX cells versus C-33a_neo).
Experimental: To evaluate the antigen-binding specificity, all twenty-five humanized variants of CA9hu-2 were subjected to enzyme-linked immunosorbent assay (ELISA) using either CA IX-positive or CA IX-negative antigen. Antigens were prepared from stably transfected C-33a cell line expressing CA IX (C-33a_CA IX) and parental mock-transfected C-33a cells without CA IX expression (C-33a_neo).
Proteins were extracted from the cell monolayer with RIPA lysis buffer (0.1% deoxycholate, 1% Triton X-100 and protease inhibitor cocktail in PBS). Protein concentrations were determined by bicinchoninic acid assay (ThermoFisher Scientific, Waltham, Mass. USA) according to the manufacturer's instructions. Protein extracts were diluted to final concentration 0.2 mg/ml in PBS. Protein concentration of antigen samples used in screening of antigen-antibody specific interaction tested by ELISA meets the requirements for low detergent content that could otherwise interfere throughout the analysis. 50 μl of either CA IX-positive or CA IX-negative antigen was coated on the surface of microplate wells overnight at 37° C. After washing with PBS-T 0.05% Tween-20 in PBS pH7.2, 50 μl of all humanized variants of CA9hu-2 (diluted to concentration 5 μg/ml in 10% FCS in PBS-T) were added and incubated for 2 h at room temperature. Peroxidase-labeled swine anti-human IgG (diluted 1:5000 in 10% FCS in PBS-T; Sigma-Aldrich, St. Louis, Mo. USA) was used as detector. Parental IV/18 antibody (marked as “mouse Ab”) as well as chimeric HC0LC0 antibody (having the murine variable domains and the human Ig constant domains) were used as reference samples. Results are expressed as a fold of induction and are calculated as O.D. values of absorbance measured at 492 nm from CA IX-positive antigen/O.D. values of absorbance measured at 492 nm from CA IX-negative antigen.

Binder	binding result
CA9hu-2_HC3LC1 (antibody, V domains shown, Humanized variant of IV/18; VH in-frame with human IgG constant domain (allotype G1m17,1), VL in-frame with human kappa constant domain (allotype Km3)) VH: QVQLVESGGGVVQPGGSLRLSCAASGFTFNTNAMHWVRQAPGRGLEWVARIRSKSNNYTTYYADSVKDRFTISRDNSKNTLYLQVNSLRAEDTAVYYCVCGSWFAYWGQGTLVTVSS VL: DVVMTQSPDSLAVSLGERVTINCKSSQSLLNSSNQKNYLAWYQQKPGQSPKLLIYFTSTRQSGVPDRFSGSGSGTDFTLTISSLQAEDVAVYYCQQHYSIPLTFGQGTKLEIK	binds
CA9hu-2_HC3LC2 (antibody, V domains shown, Humanized variant of IV/18; VH in-frame with human IgG constant domain (allotype G1m17,1), VL in-frame with human kappa constant domain (allotype Km3)) VH: QVQLVESGGGVVQPGGSLRLSCAASGFTFNTNAMHWVRQAPGRGLEWVARIRSKSNNYTTYYADSVKDRFTISRDNSKNTLYLQVNSLRAEDTAVYYCVCGSWFAYWGQGTLVTVSS VL: DIVMTQSPDSLAVSLGERATINCKSSQSLLNSSNQKNYLAWFQQKPGQPPNLVIYFTSTRQSGVPDRFSGSGSGTDFTLTINSLQAEDVAVYFCQQHYSIPLTFGQGTQVEIK	binds
CA9hu-2_HC3LC3 (antibody, V domains shown, Humanized variant of IV/18; VH in-frame with human IgG constant domain (allotype G1m17,1), VL in-frame with human kappa constant domain (allotype Km3)) VH: QVQLVESGGGVVQPGGSLRLSCAASGFTFNTNAMHWVRQAPGRGLEWVARIRSKSNNYTTYYADSVKDRFTISRDNSKNTLYLQVNSLRAEDTAVYYCVCGSWFAYWGQGTLVTVSS VL: DIQMTQSPDSLAVSLGERATINCKSSQSLLNSSNQKNYLAWYQQKPGQPPKLLIYFTSTRQSGVPDRFSGSGSGTDFTLTISSLQAEDVAVYFCQQHYSIPLTFGQGTKVEIK	binds
CA9hu-2_HC3LC4 (antibody, V domains shown, Humanized variant of IV/18; VH in-frame with human IgG constant domain (allotype G1m17,1), VL in-frame with human kappa constant domain (allotype Km3)) VH: QVQLVESGGGVVQPGGSLRLSCAASGFTFNTNAMHWVRQAPGRGLEWVARIRSKSNNYTTYYADSVKDRFTISRDNSKNTLYLQVNSLRAEDTAVYYCVCGSWFAYWGQGTLVTVSS VL: DIVMTQSPDSLAVSLGERATINCKSSQSLLNSSNQKNYLAWFQQKPGQPPKVLIYFTSTRQSGVPDRFTGSGSGTDFTLTISSLQAEDVAVYYCQQHYSIPLTFGQGTKLEIK	binds
CA9hu-2_HC4LC2 (antibody, V domains shown, Humanized variant of IV/18; VH in-frame with human IgG constant domain (allotype G1m17,1), VL in-frame with human kappa constant domain (allotype Km3)) VH: EVQLVESGGGVVQPGRSLRLSCAASGFTFNTNAMHWVRQAPGKGLEWVARIRSKSNNYTTYYADSVKDRFTISRDNSKNTLYLQMNSLRAEDTAVYYCVCGSWFAYWGQGTLVTVSS VL: DIVMTQSPDSLAVSLGERATINCKSSQSLLNSSNQKNYLAWFQQKPGQPPNLVIYFTSTRQSGVPDRFSGSGSGTDFTLTINSLQAEDVAVYFCQQHYSIPLTFGQGTQVEIK	binds
